# Laboratory results from paper PMC11322871, “AlphaFold2 assists in providing novel mechanistic insights into the interactions among the LUBAC subunits” (Acta Biochimica et Biophysica Sinica, 2024).
# T1: HOIP (466-695) (human, UniProt Q96EP0 466-695)
# T1 construct: HOIP, human, residues 466-695 (HOIP-UBA together with HOIP 629-695); also called HOIP domain (residues 466-695)
# T1 sequence (looked up): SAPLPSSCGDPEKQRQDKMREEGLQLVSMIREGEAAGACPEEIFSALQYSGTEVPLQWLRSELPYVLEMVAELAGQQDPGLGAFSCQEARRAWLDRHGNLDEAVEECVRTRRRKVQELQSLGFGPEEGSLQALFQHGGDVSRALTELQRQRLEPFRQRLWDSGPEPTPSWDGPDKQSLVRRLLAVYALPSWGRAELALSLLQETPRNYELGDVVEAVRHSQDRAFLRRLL
# B1: HOIL-1L-UBL domain (residues 55-135) (domain or fragment, human, UniProt Q9BYM8-1 55-135, looked up)
# chain: IRLWVSVEDAQMHTVTIWLTVRPDMTVASLKDMVFLDYGFPPVLQQWVIGQRLARDQETLHSHGVRQNGDSAYLYLLSARN
# notes: HOIL-1L, human, UBL domain, residues 55-135; also called HOIL-UBL
# Key:
# [1] = biological target: HOIP-UBA domain (residues 466-629) (human) (UniProt Q96EP0); assay: SPR; Biacore T200; the HOIL-1L and SHARPIN constructs mixed at the same concentration and incubated at 16°C for 2 h before analysis against HOIP-UBA (466-630); who was immobilised is not stated
# [2] = biological target: B1; assay: ITC; MicroCal PEAQ-ITC; cell and syringe not stated
# [3] = biological target: B1; assay: SPR; Biacore T200; HOIL-1L-UBL immobilised on the sensor chip, HOIP fragments flowed over
# HOIP (466-695) [4] = biological target: T1, HOIP (466-695); assay: ITC; MicroCal PEAQ-ITC; cell and syringe not stated; conditions: both partners purified
# HOIP (466-695) [5] = biological target: T1, HOIP (466-695); assay: SPR; Biacore T200; HOIL-1L-UBL immobilised on the sensor chip, HOIP fragments flowed over; conditions: both partners purified
molecule,measurement,setting,value
"HOIL-1L (5-135) and SHARPIN (127-309), containing the LTM domain, mixed before SPR (from UniProt Q9BYM8-1 5-135; Q9H0F6 127-309) (complex)",Kd,[1],496 nM
"HOIL-1L-UBL and SHARPIN-UBL without the LTM domain, mixed before SPR (from UniProt Q9BYM8-1 55-135; Q9H0F6 206-309) (complex)",Kd,[1],72.1 nM
HOIP-UBA domain (residues 466-629) (from UniProt Q96EP0 466-629) (domain or fragment),Kd,[2],4.3 µM
same,Kd,[3],543 nM
HOIP (629-695) (domain or fragment) PEPTPSWDGPDKQSLVRRLLAVYALPSWGRAELALSLLQETPRNYELGDVVEAVRHSQDRAFLRRLL,Kd,[3]; both partners purified,989 nM
B1,Kd,HOIP (466-695) [4],800 ± 200 nM
same,Kd,HOIP (466-695) [5],359 nM
